{"source": "patent US20080318834A1", "about": "“Antimicrobial Lactoferrin Compositions for Surfaces, Cavities, and Foodstuff” (priority 2004, published 2008)", "molecules": {"B1": {"name": "lactoferrin (protein, UniProt P02788 20-710, looked up)", "Lactotransferrin": "GRRRSVQWCAVSQPEATKCFQWQRNMRKVRGPPVSCIKRDSPIQCIQAIAENRADAVTLDGGFIYEAGLAPYKLRPVAAEVYGTERQPRTHYYAVAVVKKGGSFQLNELQGLKSCHTGLRRTAGWNVPIGTLRPFLNWTGPPEPIEAAVARFFSASCVPGADKGQFPNLCRLCAGTGENKCAFSSQEPYFSYSGAFKCLRDGAGDVAFIRESTVFEDLSDEAERDEYELLCPDNTRKPVDKFKDCHLARVPSHAVVARSVNGKEDAIWNLLRQAQEKFGKDKSPKFQLFGSPSGQKDLLFKDSAIGFSRVPPRIDSGLYLGSGYFTAIQNLRKSEEEVAARRARVVWCAVGEQELRKCNQWSGLSEGSVTCSSASTTEDCIALVLKGEADAMSLDGGYVYTAGKCGLVPVLAENYKSQQSSDPDPNCVDRPVEGYLAVAVVRRSDTSLTWNSVKGKKSCHTAVDRTAGWNIPMGLLFNQTGSCKFDEYFSQSCAPGSDPRSNLCALCIGDEQGENKCVPNSNERYYGYTGAFRCLAENAGDVAFVKDVTVLQNTDGNNNEAWAKDLKLADFALLCLDGKRKPVTEARSCHLAMAPNHAVVSRMDKVERLKQVLLHQQAKFGRNGSDCPDKFCLFQSETKNLLFNDNTECLARLHGKTTYEKYLGPQYVAGITNLKKCSTSPLLEACEFLRK"}}, "key": {"[1]": {"system": "E. coli ATCC 43895 (E. coli O157:H7)", "assay": "in vitro Tryptic Soy Broth (TSB) growth inhibition assay (Bioscreen C, OD 420-580 nm)", "format": "cell-based, Escherichia coli"}, "[2]": {"system": "Ps. aeruginosa (Pak strain)", "assay": "in vitro growth inhibition assay in Luria Broth Base (LB) (Bioscreen C, OD 420-580 nm)", "format": "cell-based, Pseudomonas aeruginosa", "settings": "2% (w/v) LF in PBS, sample pH of 1.7 or lower; 200 CFU's/well (200 CFU's:1 mg LF); FIG. 1B"}}}
{"molecule": "B1", "values": [{"measurement": "time for which E. coli growth was inhibited", "setting": "[1]; 2% (w/v) LF in PBS, test sample pH below 2.5, 530 CFU's:1 mg LF, 37° C., FIG. 1A", "value": "at least 60 hours"}, {"measurement": "antimicrobial activity on E. coli O157:H7 as function of EDTA concentration", "setting": "[1]; 2% (w/v) LF in demi water, 0-1 mM EDTA, pH about 5 not adjusted, 270 CFU's:1 mg LF, FIG. 2", "value": "increases with increasing EDTA concentration"}, {"measurement": "time for which growth of Pseudomonas aeruginosa is inhibited", "setting": "[2]", "value": "at least 45 hours"}]}
